Test results: patent US20170101476A1 (Novartis, published 2017)

T1: Human CXCR2 (human, UniProt P25025 1-360)
T1 sequence: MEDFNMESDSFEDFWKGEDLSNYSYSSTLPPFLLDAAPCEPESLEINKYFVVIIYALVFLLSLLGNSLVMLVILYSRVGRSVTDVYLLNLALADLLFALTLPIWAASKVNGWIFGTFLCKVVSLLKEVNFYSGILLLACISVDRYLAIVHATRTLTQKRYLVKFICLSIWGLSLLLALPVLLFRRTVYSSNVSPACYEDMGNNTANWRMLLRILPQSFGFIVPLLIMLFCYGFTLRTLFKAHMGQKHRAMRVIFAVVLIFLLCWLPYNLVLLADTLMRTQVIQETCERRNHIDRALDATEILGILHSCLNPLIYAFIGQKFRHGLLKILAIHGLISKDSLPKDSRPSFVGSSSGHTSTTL

T2: Cynomolgus CXCR2 (cynomolgus, UniProt Q28519 3-353 (rhesus entry))
T2 chain: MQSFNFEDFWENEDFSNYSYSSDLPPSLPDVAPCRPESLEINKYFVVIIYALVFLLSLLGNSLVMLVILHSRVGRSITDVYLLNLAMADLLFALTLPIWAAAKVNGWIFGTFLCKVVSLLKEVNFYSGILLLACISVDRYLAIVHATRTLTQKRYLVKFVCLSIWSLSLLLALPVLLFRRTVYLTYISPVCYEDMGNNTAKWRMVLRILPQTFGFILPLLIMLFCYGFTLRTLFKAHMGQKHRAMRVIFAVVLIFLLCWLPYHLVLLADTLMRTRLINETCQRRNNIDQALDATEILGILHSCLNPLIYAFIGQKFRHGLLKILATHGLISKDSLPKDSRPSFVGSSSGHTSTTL


Assays:
Assay in all cases: cell-based or functional assay
Human CXCR2 [1] = biological target: T1, Human CXCR2
Cynomolgus CXCR2 = biological target: T2, Cynomolgus CXCR2
Human CXCR2 [2] = biological target: T1, Human CXCR2; remark: listed apart in the source

| Binder | [35S]GTPγS % inhibition of max, GRO-α (Human CXCR2 [1]) | [35S]GTPγS accumulation IC50, GRO-α (Human CXCR2 [1]) | FLIPR IC50, GRO-α induced intracellular calcium release (Cynomolgus CXCR2) | FLIPR IC50, GRO-α induced intracellular calcium release (Human CXCR2 [2]) | [35S]GTPγS % inhibition of max, ENA-78 (Human CXCR2 [1]) | [35S]GTPγS % inhibition of max, IL-8 (Human CXCR2 [1]) | [35S]GTPγS accumulation IC50, ENA-78 (Human CXCR2 [1]) | [35S]GTPγS accumulation IC50, IL-8 (Human CXCR2 [1]) |
| --- | --- | --- | --- | --- | --- | --- | --- | --- |
| CXCR20022 (VHH, not shown: small tags and cut ends) EVQLVESGGGLVQAGGSLRLSCAASGRTFSDYAMGWFRQAPGKEREFVAAITWNGGRVFYTASVKGRFTISRDNAKNTMYLQMNSLKPEDTAVYYCAADKDRRTDYLGHPVAYWGQGTQVTVSSGGGGSGGGGSGGGGSGGGGSGGGGSGGGGSGGGGSEVQLVESGGGLVQAGGSLRLSCAASGRTFSDYAMGWFRQAPGKEREFVAAITWNGGRVFYTASVKGRFTISRDNAKNTMYLQMNSLKPEDTAVYYCAADKDRRTDYLGHPVAYWGQGTQVTVSS | 100% | 28.5 nM | 8.64 nM | 9.34 nM |  |  |  |  |
| CXCR20011 (VHH, not shown: small tags and cut ends) EVQLVESGGGLVQPGGSLRLSCVASGSIVRINTMGWYRQTPGKQRELVADITSGGNINYIDAVKGRFTISRDNTKNTVYLQMNSLKPEDTAVYYCNAEIVVLVGVWTQRARTGNYWGQGTQVTVSSGGGGSGGGGSGGGGSGGGGSGGGGSGGGGSGGGGSEVQLVESGGGLVQPGGSLRLSCVASGSIVRINTMGWYRQTPGKQRELVADITSGGNINYIDAVKGRFTISRDNTKNTVYLQMNSLKPEDTAVYYCNAEIVVLVGVWTQRARTGNYWGQGTQVTVSS |  |  |  | 137 nM |  |  |  |  |
| CXCR20017 (other, not shown: small tags and cut ends) EVQLVESGGGLVQPGGSLRLSCVASGSIVRINTMGWYRQTPGKQRELVADITSGGNINYIDAVKGRFTISRDNTKNTVYLQMNSLKPEDTAVYYCNAEIVVLVGVWTQRARTGNYWGQGTQVTVSSGGGGSGGGGSGGGGSGGGGSGGGGSGGGGSGGGGSEVQLVESGGGLVQPGGSVRLSCVASGIIFRLSALGWTRQGPGKAREWVAGINSDGTTNYADPVKGRFTISRDNAKNTIYLHMDMLKPEDTAVYYCASGKYRGQGTQVTVSS |  |  | 1080 nM | 22.9 nM |  |  |  |  |
| CXCR20024 (VHH, not shown: small tags and cut ends) EVQLVESGGGLVQPGGSLRLSCVASGRIFSSNAMGWFRQAPGKEREFVAAITWRSGGSAYYADSAKGRFTISRDNAKNTVYLQMNSLKPEDTAVYYCAAGGSSWLSFPPDYWGQGTQVTVSSGGGGSGGGGSGGGGSGGGGSGGGGSGGGGSGGGGSEVQLVESGGGLVQPGGSLRLSCVASGRIFSSNAMGWFRQAPGKEREFVAAITWRSGGSAYYADSAKGRFTISRDNAKNTVYLQMNSLKPEDTAVYYCAAGGSSWLSFPPDYWGQGTQVTVSS | 100% | 30.3 nM | 11.8 nM | 26.4 nM |  |  |  |  |
| CXCR20016 (other, not shown: small tags and cut ends) EVQLVESGGGLVQPGGSVRLSCVASGIIFRLSALGWTRQGPGKAREWVAGINSDGTTNYADPVKGRFTISRDNAKNTIYLHMDMLKPEDTAVYYCASGKYRGQGTQVTVSSGGGGSGGGGSGGGGSGGGGSGGGGSGGGGSGGGGSEVQLVESGGELVQPGGSLRLSCAASGSILTINAMGWYRQAPGKQRELVVRRTRGGSTTYQDSVKGRFTISADIAKKTMYLQMNSLKPEDTAVYYCMLDDRGGVYWGQGTQVTVSS |  |  | 1100 nM | 2.36 nM |  |  |  |  |
| CXCR20021 (bispecific antibody, not shown: small tags and cut ends) EVQLVESGGGLVQAGESLRLSCAASGSTFDFKVMGWYRQPPGKQREGVAAIRLSGNMHYAESVKGRFTISKANAKNTVYLQMNSLRPEDTAVYYCKVNIRGQDYWGQGTQVTVSSGGGGSGGGGSGGGGSGGGGSGGGGSGGGGSGGGGSEVQLVESGGGLVQPGGSLRLSCVASGRIFSSNAMGWFRQAPGKEREFVAAITWRSGGSAYYADSAKGRFTISRDNAKNTVYLQMNSLKPEDTAVYYCAAGGSSWLSFPPDYWGQGTQVTVSS | 100% | 0.551 nM | 2.31 nM | 7.32 nM | 100% | 100% | 0.787 nM | 0.827 nM |
| CXCR20015 (other, not shown: small tags and cut ends) EVQLVESGGELVQPGGSLRLSCAASGSILTINAMGWYRQAPGKQRELVVRRTRGGSTTYQDSVKGRFTISADIAKKTMYLQMNSLKPEDTAVYYCMLDDRGGVYWGQGTQVTVSSGGGGSGGGGSGGGGSGGGGSGGGGSGGGGSGGGGSEVQLVESGGGLVQPGGSVRLSCVASGIIFRLSALGWTRQGPGKAREWVAGINSDGTTNYADPVKGRFTISRDNAKNTIYLHMDMLKPEDTAVYYCASGKYRGQGTQVTVSS |  |  | 2870 nM | 2.78 nM |  |  |  |  |
| CXCR20027 (bispecific antibody, not shown: small tags and cut ends) EVQLVESGGGLVQPGGSLRLSCVASGRIFSSNAMGWFRQAPGKEREFVAAITWRSGGSAYYADSAKGRFTISRDNAKNTVYLQMNSLKPEDTAVYYCAAGGSSWLSFPPDYWGQGTQVTVSSGGGGSGGGGSGGGGSGGGGSGGGGSGGGGSGGGGSEVQLVESGGGLVQAGGSLRLSCAASGRTFSDYAMGWFRQAPGKEREFVAAITWNGGRVFYTASVKGRFTISRDNAKNTMYLQMNSLKPEDTAVYYCAADKDRRTDYLGHPVAYWGQGTQVTVSS |  |  | 12.7 nM | 17.8 nM |  |  |  |  |
| CXCR20013 (bispecific antibody, not shown: small tags and cut ends) EVQLVESGGELVQPGGSLRLSCAASGSILTINAMGWYRQAPGKQRELVVRRTRGGSTTYQDSVKGRFTISADIAKKTMYLQMNSLKPEDTAVYYCMLDDRGGVYWGQGTQVTVSSGGGGSGGGGSGGGGSGGGGSGGGGSGGGGSGGGGSEVQLVESGGGLVQPGGSLRLSCVASGSIVRINTMGWYRQTPGKQRELVADITSGGNINYIDAVKGRFTISRDNTKNTVYLQMNSLKPEDTAVYYCNAEIVVLVGVWTQRARTGNYWGQGTQVTVSS |  |  | 29.2 nM | 2.93 nM |  |  |  |  |
| CXCR20025 (bispecific antibody, not shown: small tags and cut ends) EVQLVESGGGLVQAGGSLRLSCAASGRTFSDYAMGWFRQAPGKEREFVAAITWNGGRVFYTASVKGRFTISRDNAKNTMYLQMNSLKPEDTAVYYCAADKDRRTDYLGHPVAYWGQGTQVTVSSGGGGSGGGGSGGGGSGGGGSGGGGSGGGGSGGGGSEVQLVESGGGLVQAGESLRLSCAASGSTFDFKVMGWYRQPPGKQREGVAAIRLSGNMHYAESVKGRFTISKANAKNTVYLQMNSLRPEDTAVYYCKVNIRGQDYWGQGTQVTVSS | 100% | 0.891 nM | 7.88 nM | 12.2 nM |  |  |  |  |

The remaining lines, values ahead:

| [35S]GTPγS % inhibition of max, GRO-α (Human CXCR2 [1]) | [35S]GTPγS accumulation IC50, GRO-α (Human CXCR2 [1]) | FLIPR IC50, GRO-α induced intracellular calcium release (Cynomolgus CXCR2) | FLIPR IC50, GRO-α induced intracellular calcium release (Human CXCR2 [2]) | [35S]GTPγS % inhibition of max, ENA-78 (Human CXCR2 [1]) | [35S]GTPγS % inhibition of max, IL-8 (Human CXCR2 [1]) | [35S]GTPγS accumulation IC50, ENA-78 (Human CXCR2 [1]) | [35S]GTPγS accumulation IC50, IL-8 (Human CXCR2 [1]) | Binder |
| --- | --- | --- | --- | --- | --- | --- | --- | --- |
|  |  | 3.65 nM | 14.7 nM | 100% | 100% | 0.116 nM | 0.997 nM | CXCR20032 (bispecific antibody, not shown: small tags and cut ends) EVQLVESGGELVQPGGSLRLSCAASGSILTINAMGWYRQAPGKQRELVVRRTRGGSTTYQDSVKGRFTISADIAKKTMYLQMNSLKPEDTAVYYCMLDDRGGVYWGQGTQVTVSSGGGGSGGGGSGGGGSGGGGSGGGGSGGGGSGGGGSEVQLVESGGGLVQAGGSLRLSCAASGRTFSDYAMGWFRQAPGKEREFVAAITWNGGRVFYTASVKGRFTISRDNAKNTMYLQMNSLKPEDTAVYYCAADKDRRTDYLGHPVAYWGQGTQVTVSS |
|  |  | 4.26 nM | 15.2 nM | 100% | 100% | 1.38 nM | 0.84 nM | CXCR20031 (bispecific antibody, not shown: small tags and cut ends) EVQLVESGGELVQPGGSLRLSCAASGSILTINAMGWYRQAPGKQRELVVRRTRGGSTTYQDSVKGRFTISADIAKKTMYLQMNSLKPEDTAVYYCMLDDRGGVYWGQGTQVTVSSGGGGSGGGGSGGGGSGGGGSGGGGSGGGGSGGGGSEVQLVESGGGLVQPGGSLRLSCVASGRIFSSNAMGWFRQAPGKEREFVAAITWRSGGSAYYADSAKGRFTISRDNAKNTVYLQMNSLKPEDTAVYYCAAGGSSWLSFPPDYWGQGTQVTVSS |
|  |  | 4.27 nM | 7.86 nM |  |  |  |  | CXCR20036 (other, not shown: small tags and cut ends) EVQLVESGGGLVQAGGSLTLSCAVSGSTFRINTMGWYRRAPGKQRELVAARDRGGYINYVDSVKGRFTVSRDNAKPTMYLQMNSLKPEDTAVYYCHAGTQDRTGRNFDRWGQGTQVTVSSGGGGSGGGGSGGGGSGGGGSGGGGSGGGGSGGGGSEVQLVESGGGLVQAGGSLRLSCAASGRTFSDYAMGWFRQAPGKEREFVAAITWNGGRVFYTASVKGRFTISRDNAKNTMYLQMNSLKPEDTAVYYCAADKDRRTDYLGHPVAYWGQGTQVTVSS |
|  |  | 10.1 nM | 17.1 nM |  |  |  |  | CXCR20029 (other, not shown: small tags and cut ends) EVQLVESGGGLVQPGGSLRLSCVASGRIFSSNAMGWFRQAPGKEREFVAAITWRSGGSAYYADSAKGRFTISRDNAKNTVYLQMNSLKPEDTAVYYCAAGGSSWLSFPPDYWGQGTQVTVSSGGGGSGGGGSGGGGSGGGGSGGGGSGGGGSGGGGSEVQLVESGGGLVQAGGSLTLSCAVSGSTFRINTMGWYRRAPGKQRELVAARDRGGYINYVDSVKGRFTVSRDNAKPTMYLQMNSLKPEDTAVYYCHAGTQDRTGRNFDRWGQGTQVTVSS |
